Biological target: dCas9*_HNH-L88 (ZFP fusion) (Streptococcus pyogenes / synthetic)
Test: cell_activity; E. coli; maximum reached at optimal 6 bp spacer; about a third of unmodified dCas9
Settings: dCas9(R1335K), HNH deleted, 88 aa linker, C-terminal Zif268TS3
Procedure: A reporter system was developed to evaluate the impact of these modifications on the ability for dCas9 to repress the targeted promoter (FIGS. 13A-13F). The expression of the sgRNA and dCas9 are controlled using IPTG- and aTc-inducible promoters, respectively. All of these components are integrated into a single p15A plasmid backbone. The fold-repression is measured as the fluorescence from the output promoter in the absence of sgRNA inducer (0 mM IPTG), divided by the fluorescence when the sgRNA is expressed (1 mM IPTG). When the R1335K mutation is made (dCas9*), this completely abolishes repression as expected (FIG. 1C).
The ability for a zinc finger protein (ZFP) to recover nuclease activity was first tested. To this end, a variant of dCas9* described previously was built, where Zif268^TS3 is fused to the C-terminal end of dCas9* via a 58 amino acid linker (Bolukbasi M. F., et al., Nat. Methods, 2015 December; 12(12): 1150-56). The corresponding 12 bp operator recognized by Zif268^Ts3 was then placed upstream of the promoter, separated from the −35 position by a spacer (all promoter variants described are provided in TABLE 3). The orientation of the operator (forward and reverse) was initially tested with the forward yielding higher repression as previously observed (Bolukbasi M. F., et al., Nat. Methods, 2015 December; 12(12): 1150-56). […]

B1: sgRNA9 ; pZFP_S6 promoter (ssRNA ; dsDNA)
RNA: AUAAUACCCGUGUGACCCGUGUUUUAGAGCUAGAAAUAGCAAGUUAAAAUAAGGCUAGUCCGUUAUCAACUUGAAAAAGUGGCACCGAGUCGGUGCUUUUUUU
DNA 1: TCCGAATGACATGCGTCTCCGGTGTTGGAGCGACAGCCTTTACACCAACGGGTCACACGGGTATTATGCTAGC
DNA 2: GCTAGCATAATACCCGTGTGACCCGTTGGTGTAAAGGCTGTCGCTCCAACACCGGAGACGCATGTCATTCGGA
activity: 28 fold repression
